From US20030050434A1

Target: polyclonal rabbit antiserum raised against synthetic rat preptin conjugated to ovalbumin
Assay: competitive radioimmunoassay, [125I]preptin tracer, antiserum 1:10,000, PEG-assisted second antibody separation

EC20: 344 pM
EC80: 39 pM
minimum detectable concentration: 11.2 pM
Binder: DVSTSQAVLPDDFPRYPVGKFFKFDTWRQSAGRL [synthetic rat preptin]
